How the values were obtained:
Rat2 cells = assay: Cell growth inhibiting activity in rat fibroblast cell line Rat2 (MTT method); type: cell-based; conditions: 1.5 µg/ml; compared with LP6 to LP10
Method: The assay of growth inhibiting activity using the rat fetal fibroblast as above mentioned has an insufficient sensitivity and needs complicated operations; therefore, a higher sensitive assay of the growth inhibiting activity using rat fibroblasts, Rat2 cells, was established. This assay will be described hereinbelow.
Rat fibroblast cell line Rat2 (ATCC CRL-1764) was cultured in Eagle MEM medium containing 10% bovine serum (Science, 130, 432 (1959)) in the presence of 5% carbon dioxide at 37°C.
The number of Rat2 cells can be measured by any method which can be used for quantitative determination of cell growth. […] Procedures for quantitatively determining the number of cells by the MTT method and assaying the cell growth inhibiting activity of a sample will be described herein. […]
Thereafter, PBS containing 1 to 10 mg/ml, preferably 5 mg/ml, of MTT reagent is added at 1 to 100 µl/well, preferably 10 µl/well, and further incubated for 1 to 8 hours, preferably 4 hours. […] The absorbance of the dissolved formazan dye at 540 nm is measured to thereby quantitatively determine the number of cells. […]
The number of Rat2 cells may be measured by any method which can be used to determine cell growth in a quantitative manner. The number of cells was quantitatively determined by the MTT method herein to measure the cell growth inhibiting activity in the liver perfusates LP6 to LP10. […]

[1] = Arginase activity assay (Garganta and Bond); type: biochemical; conditions: purified preparation
Method: The elution of protein was monitored by measuring absorbance at 280 nm. Effluents were collected by a fraction collector and each fraction was estimated according to the method of measuring arginase activity as reported by Garganta and Bond: Analytical Biochemistry, 154, 388 (1986).
The SP-Sepharose human arginase fraction contained 1360 mg of proteins and the purity of human arginase was 90% or higher. […] The amount of proteins herein means the value calculated as bovine serum albumin using BIO-RAD protein assay kit.

[2] = Arginine concentration in blood (plasma) after administration to rats; type: in vivo, SD rats; conditions: 0.5 ml of 200 µg/ml per rat into penis veniplex; 1, 3, 6, 24 hours and 1 to 14 days
Method: 2. Kinetics of PEG modified rat arginase in rat blood
Male SD rats (body weight of 220 to 240 G) were purchased from Nippon SLC and tested after about 1 week breeding. […] After inhalation anesthesia with diethyl ether, each sample was administered to penis veniplex at a dose of 0.5 ml per rat by means of a disposable plastic syringe (Terumo).
To determine the change with the passage of time, the blood was taken from the same individual at 1, 3, 6 and 24 hours or 1, 3, 7, 10 and 14 days. The animals were bled from the tail veins at 0.3 ml per animal by a method that causes a minimum effect on the animals. Each rat was fixed in a retaining trap (Natsume Seisakusho) so that it could move only the tail freely, and a disposable injection needle (Terumo, 23x1" ) was cut at the part connecting to the syringe and inserted into the tail vein. The vein blood dripped from the cut end was received in a sample tube (Eppendorph, volume of 1.5 ml) containing 10 µl of 5% EDTA.2K solution as an anticoagulant. After slightly shaking to confirm the absence of coagulation, the blood was centrifuged at 3,000 rpm for 10 minutes to yield plasma. The plasma sample was freezed and stored at -80°C until analysis. Prior to use, the sample was thawed and centrifuged at 3,000 rpm for 10 minutes to remove insoluble matters. […]

B1: PEG modified rat arginase: recombinant rat arginase modified with methoxy polyethylene glycol propionic acid N-hydroxysuccinimide ester, average molecular weight about 5,000 (conjugate, UniProt P07824 1-323, looked up)
Arginase-1: MSSKPKPIEIIGAPFSKGQPRGGVEKGPAALRKAGLVEKLKETEYNVRDHGDLAFVDVPNDSPFQIVKNPRSVGKANEQLAAVVAETQKNGTISVVLGGDHSMAIGSISGHARVHPDLCVIWVDAHTDINTPLTTSSGNLHGQPVAFLLKELKGKFPDVPGFSWVTPCISAKDIVYIGLRDVDPGEHYIIKTLGIKYFSMTEVDKLGIGKVMEETFSYLLGRKKRPIHLSFDVDGLDPVFTPATGTPVVGGLSYREGLYITEEIYKTGLLSGLDIMEVNPTLGKTPEEVTRTVNTAVALTLSCFGTKREGNHKPETDYLKPPK
modifications: methoxy PEG 5000 conjugated
Rat2 cells
  rat fibroblast Rat-2 growth inhibiting activity: identical with that obtained when 1.25% LP6 to LP10 were added
[1]
  arginase activity: 2358 U/ml
[2]
  arginine concentration in blood: Sustained inhibiting effects

From patent EP0956864A1, “TISSUE FIBROSIS INHIBITOR” (KYOWA HAKKO KOGYO CO., LTD., priority 1996, dated 1998)
